The series deals with the molecule itself. The experiment in a line: cross-linking.

B1: DIRAS3 N-terminal extension peptide, wild type (NTEwt) (peptide, UniProt O95661 1-34, looked up)
peptide: MGNASFGSKEQKLLKRLRLLPALLILRAFKPHRK
The stoichiometry N is a count of units in the complex or per binding partner. On to B1, for which the “stoichiometry N” value was determined as 2.

B2: DIRAS3 NTE peptide with mutation of the glycine myristoylation site (NTEG2A) (peptide, UniProt O95661 1-34, looked up)
peptide: MANASFGSKEQKLLKRLRLLPALLILRAFKPHRK
For the protein B2, the “stoichiometry N” value was found to be 2.
